Assay [1] concerns the target RAMP1 ECD-CTR ECD fusion protein (human) (UniProt O60894). In words: fluorescence polarisation.
For assay [2], the target named is RAMP2 ECD-CTR ECD fusion protein (human) (UniProt O60895). In words: fluorescence polarisation.
For assay [3], the target named is RAMP3 ECD-CTR ECD fusion protein (human) (UniProt O60896). As to the kind of experiment: fluorescence polarisation. Background: Fluorescence polarisation rises when a labelled molecule tumbles more slowly, as on binding a larger partner.
In assay [4] the target is calcitonin receptor (CTR) extracellular domain (ECD) (human). As to the kind of experiment: fluorescence polarisation.
Assay [5] addresses full-length human calcitonin receptor C-terminally tagged with NanoLuc luciferase (human) (UniProt P30988).
In a further assay the target is amylin receptor ECDs. As to the kind of experiment: fluorescence polarisation.

UniProt O60894, sequence (O60894 whole entry, the tested form may be a part): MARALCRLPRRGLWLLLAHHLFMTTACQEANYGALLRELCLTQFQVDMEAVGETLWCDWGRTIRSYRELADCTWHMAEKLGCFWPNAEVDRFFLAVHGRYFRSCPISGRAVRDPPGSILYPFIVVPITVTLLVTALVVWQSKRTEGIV
UniProt O60896, sequence (O60896 whole entry, the tested form may be a part): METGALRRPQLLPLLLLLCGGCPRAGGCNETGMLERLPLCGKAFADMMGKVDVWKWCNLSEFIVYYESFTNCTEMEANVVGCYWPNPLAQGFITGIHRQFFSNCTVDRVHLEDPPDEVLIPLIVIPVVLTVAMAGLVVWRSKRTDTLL
UniProt P30988, sequence (P30988 25-474): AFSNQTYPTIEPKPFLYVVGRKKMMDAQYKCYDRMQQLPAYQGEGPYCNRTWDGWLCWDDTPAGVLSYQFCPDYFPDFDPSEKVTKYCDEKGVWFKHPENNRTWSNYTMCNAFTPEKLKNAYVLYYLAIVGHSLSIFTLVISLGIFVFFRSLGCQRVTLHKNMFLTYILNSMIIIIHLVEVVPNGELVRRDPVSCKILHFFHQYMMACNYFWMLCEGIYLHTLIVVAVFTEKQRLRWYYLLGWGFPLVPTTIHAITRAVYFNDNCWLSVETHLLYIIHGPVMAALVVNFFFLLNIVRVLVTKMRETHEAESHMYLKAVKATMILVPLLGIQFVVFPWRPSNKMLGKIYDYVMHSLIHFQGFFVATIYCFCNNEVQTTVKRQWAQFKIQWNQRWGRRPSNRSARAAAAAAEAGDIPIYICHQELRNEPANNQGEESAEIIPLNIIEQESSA
UniProt O60895, sequence (O60895 whole entry, looked up, the tested form may be a part): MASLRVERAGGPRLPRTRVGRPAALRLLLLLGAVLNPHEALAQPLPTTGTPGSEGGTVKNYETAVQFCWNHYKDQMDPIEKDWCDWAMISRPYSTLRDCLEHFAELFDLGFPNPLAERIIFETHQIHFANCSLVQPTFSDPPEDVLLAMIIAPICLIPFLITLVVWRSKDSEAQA

A word on the Kd: it is the free concentration of one partner at which half of the binding sites on the other are occupied at equilibrium, for simple one-to-one binding. Take “FITC-labeled AC413(6–25) with Y25P mutation (peptide)”: the dissociation constant (Kd) turned out to be 77 nM in assay [1], 67 nM in assay [2] and 252 nM in assay [3].
Take “FITC-labeled salmon calcitonin (sCT) fragment(22–32) (peptide)”: the Kd in assay [4] amounted to 500 nM.
On to pramlintide (peptide), for which the EC50 of receptor activation (mini-Gs recruitment BRET, HEK293T cells) in assay [5] was found to be 72 nM.
In turn, rat amylin(27–37) L27W/Y37P (peptide) came in with a fold increase in affinity over rat amylin(27–37) L27Y/Y37P in assay [1] of 2 fold.
On the same count and under the same terms, for “rat amylin(27–37) L27Y/Y37P plus P29K (peptide)” the value was 4 fold; for “rat amylin(27–37) L27Y/Y37P plus P29R (peptide)”, 4 fold.
In assay [1], “rat amylin(27–37) L27Y/Y37P plus S34A (peptide)” yielded a fold increase in affinity over rat amylin(27–37) L27Y/Y37P of 2.5 fold.
“rat amylin(27–37) L27Y/Y37P plus S34HYP (hydroxyproline) (peptide)”: the fold decrease in affinity against the peptide with S34P in assay [1] is 9 fold.
For “rat amylin(27–37) L27Y/Y37P plus S34P (peptide)”, in assay [1], the fold increase in affinity over rat amylin(27–37) L27Y/Y37P turned out to be 3.6 fold.
The term Ki denotes the equilibrium dissociation constant of an inhibitor or competing ligand from its target. A high value points to a looser hold on the target. On to “rat amylin(27–37) with L27Y and Y37P double mutations (peptide)”, for which the Ki with amylin receptor ECDs was 4 to 11 µM.
“rat amylin(27–37) with Y37HYP (hydroxyproline) mutation (peptide)”: the fold increase in affinity over rat amylin(27–37) Y37P in assay [1] was determined as 5 fold; in assay [3], 3 fold.

The record behind these values is article doi:10.1101/2024.07.31.606116.
